# Residue numbers refer to the chain shown, from its start. In names and notes the source's numbering stands.
# T1: human FcγRIIA (R131, Sino Biological Cat. No. 10374-H08H) (human, UniProt P12318 34-218)
# T1 construct: bought; also called human FcγRIIa R131 allele; FcγRII allele R131
# T1 sequence (looked up): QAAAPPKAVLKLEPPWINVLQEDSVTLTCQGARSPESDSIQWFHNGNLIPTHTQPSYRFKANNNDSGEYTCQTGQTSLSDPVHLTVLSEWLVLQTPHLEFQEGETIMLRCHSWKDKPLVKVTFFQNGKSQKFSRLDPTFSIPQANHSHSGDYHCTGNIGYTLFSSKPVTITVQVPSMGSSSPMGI
# B1: anti-CD20 mouse IgG2a L234Q/L235S/G236R (antibody)
# heavy: QVQLQQPGAELVKPGASVKMSCKASGYTFTSYNMHWVKQTPGRGLEWIGAIYPGNGDTSYNQKFKGKATLTADKSSSTAYMQLSSLTSEDSAVYYCARSTYYGGDWYFNVWGAGTTVTVSSAKTTAPSVYPLAPVCGDTTGSSVTLGCLVKGYFPEPVTLTWNSGSLSSGVHTFPAVLQSDLYTLSSSVTVTSSTWPSQSITCNVAHPASSTKVDKKIEPRGPTIKPCPPCKCPAPNQSRGPSVFIFPPKIKDVLMISLSPIVTCVVVDVSEDDPDVQISWFVNNVEVHTAQTQTHREDYNSTLRVVSALPIQHQDWMSGKEFKCKVNNKDLPAPIERTISKPKGSVRAPQVYVLPPPEEEMTKKQVTLTCMVTDFMPEDIYVEWTNNGKTELNYKNTEPVLDSDGSYFMYSKLRVEKKNWVERNSYSCSVVHEGLHNHHTTKSFSRTPGK
# light: QIVLSQSPAILSASPGEKVTMTCRASSSVSYIHWFQQKPGSSPKPWIYATSNLASGVPVRFSGSGSGTSYSLTISRVEAEDAATYYCQQWTSNPPTFGGGTKLEIKRADAAPTVSIFPPSSEQLTSGGASVVCFLNNFYPKDINVKWKIDGSERQNGVLNSWTDQDSKDSTYSMSSTLTLTKDEYERHNSYTCEATHKTSTSPIVKSFNRNEC
# notes: copies: 2 + 2
# B2: anti-CD20 rabbit IgG L234Q/L235S/G236R (antibody)
# heavy: QVQLQQPGAELVKPGASVKMSCKASGYTFTSYNMHWVKQTPGRGLEWIGAIYPGNGDTSYNQKFKGKATLTADKSSSTAYMQLSSLTSEDSAVYYCARSTYYGGDWYFNVWGAGTTVTVSSGQPKAPSVFPLAPCCGDTPSSTVTLGCLVKGYLPEPVTVTWNSGTLTNGVRTFPSVRQSSGLYSLSSVVSVTSSSQPVTCNVAHPATNTKVDKTVAPSTCSKPTCPPPEQSRGPSVFIFPPKPKDTLMISRTPEVTCVVVDVSEDDPEVQFTWYINNEQVRTARPPLREQQFNSTIRVVSTLPIAHEDWLRGKEFKCKVHNKALPAPIEKTISKARGQPLEPKVYTMGPPREELSSRSVSLTCMINGFYPSDISVEWEKNGKAEDNYKTTPAVLDSDGSYFLYSKLSVPTSEWQRGDVFTCSVMHEALHNHYTQKSISRSPGK
# light: QIVLSQSPAILSASPGEKVTMTCRASSSVSYIHWFQQKPGSSPKPWIYATSNLASGVPVRFSGSGSGTSYSLTISRVEAEDAATYYCQQWTSNPPTFGGGTKLEIKRDPVAPSVLLFPPSKEELTTGTATIVCVANKFYPSDITVTWKVDGTTQQSGIENSKTPQSPEDNTYSLSSTLSLTSAQYNSHSVYTCEVVQGSASPIVQSFNRGDC
# notes: also called 23.77
# B3: anti-CD20 human IgG1 L234Q/L235S/G236R (antibody)
# heavy: QVQLQQPGAELVKPGASVKMSCKASGYTFTSYNMHWVKQTPGRGLEWIGAIYPGNGDTSYNQKFKGKATLTADKSSSTAYMQLSSLTSEDSAVYYCARSTYYGGDWYFNVWGAGTTVTVSSASTKGPSVFPLAPSSKSTSGGTAALGCLVKDYFPEPVTVSWNSGALTSGVHTFPAVLQSSGLYSLSSVVTVPSSSLGTQTYICNVNHKPSNTKVDKKVEPKSCDKTHTCPPCPAPEQSRGPSVFLFPPKPKDTLMISRTPEVTCVVVDVSHEDPEVKFNWYVDGVEVHNAKTKPREEQYNSTYRVVSVLTVLHQDWLNGKEYKCKVSNKALPAPIEKTISKAKGQPREPQVYTLPPSRDELTKNQVSLTCLVKGFYPSDIAVEWESNGQPENNYKTTPPVLDSDGSFFLYSKLTVDKSRWQQGNVFSCSVMHEALHNHYTQKSLSLSPGK
# light: QIVLSQSPAILSASPGEKVTMTCRASSSVSYIHWFQQKPGSSPKPWIYATSNLASGVPVRFSGSGSGTSYSLTISRVEAEDAATYYCQQWTSNPPTFGGGTKLEIKRTVAAPSVFIFPPSDEQLKSGTASVVCLLNNFYPREAKVQWKVDNALQSGNSQESVTEQDSKDSTYSLSSTLTLSKADYEKHKVYACEVTHQGLSSPVTKSFNRGEC
# notes: also called 10.77; copies: 2 + 2
# B4: anti-CD20 human IgG2 L234Q/L235S (antibody)
# heavy: QVQLQQPGAELVKPGASVKMSCKASGYTFTSYNMHWVKQTPGRGLEWIGAIYPGNGDTSYNQKFKGKATLTADKSSSTAYMQLSSLTSEDSAVYYCARSTYYGGDWYFNVWGAGTTVTVSSASTKGPSVFPLAPCSRSTSESTAALGCLVKDYFPEPVTVSWNSGALTSGVHTFPAVLQSSGLYSLSSVVTVPSSNFGTQTYTCNVDHKPSNTKVDKTVERKCCVECPPCPAPPQSGPSVFLFPPKPKDTLMISRTPEVTCVVVDVSHEDPEVQFNWYVDGVEVHNAKTKPREEQFNSTFRVVSVLTVVHQDWLNGKEYKCKVSNKGLPAPIEKTISKTKGQPREPQVYTLPPSREEMTKNQVSLTCLVKGFYPSDIAVEWESNGQPENNYKTTPPMLDSDGSFFLYSKLTVDKSRWQQGNVFSCSVMHEALHNHYTQKSLSLSPGK
# light: B3 light
# notes: also called 11.144; copies: 2 + 2
# B5: anti-CD20 human IgG1 L234T/L235T/G236R (antibody)
# heavy: B3 heavy with Q238T, S239T
# light: B3 light
# notes: also called 1-165; 2-63; copies: 2 + 2
# B6: anti-CD20 human IgG4 L234Q/L235S/G236R (with S228P) (antibody)
# heavy: QVQLQQPGAELVKPGASVKMSCKASGYTFTSYNMHWVKQTPGRGLEWIGAIYPGNGDTSYNQKFKGKATLTADKSSSTAYMQLSSLTSEDSAVYYCARSTYYGGDWYFNVWGAGTTVTVSSASTKGPSVFPLAPCSRSTSESTAALGCLVKDYFPEPVTVSWNSGALTSGVHTFPAVLQSSGLYSLSSVVTVPSSSLGTKTYTCNVDHKPSNTKVDKRVESKYGPPCPPCPAPEQSRGPSVFLFPPKPKDTLMISRTPEVTCVVVDVSQEDPEVQFNWYVDGVEVHNAKTKPREEQFNSTYRVVSVLTVLHQDWLNGKEYKCKVSNKGLPSSIEKTISKAKGQPREPQVYTLPPSQEEMTKNQVSLTCLVKGFYPSDIAVEWESNGQPENNYKTTPPVLDSDGSFFLYSRLTVDKSRWQEGNVFSCSVMHEALHNHYTQKSLSLSLGK
# light: B3 light
# notes: copies: 2 + 2
# B7: anti-CD20 human IgG1 L234S/L235T/G236R (antibody)
# heavy: B3 heavy with Q238S, S239T
# light: B3 light
# notes: also called 1-150; 2-52; copies: 2 + 2
# B8: anti-CD20 human IgG1 L234Q/L235S/G236R/T250Q/M428L (antibody)
# heavy: B3 heavy with T254Q, M432L
# light: B3 light
# notes: also called 10.146; copies: 2 + 2
# B9: anti-CD20 human IgG1 L234T/L235Q/G236R (antibody)
# heavy: B3 heavy with Q238T, S239Q
# light: B3 light
# notes: also called 2-60; copies: 2 + 2
# B10: anti-CD20 human IgG1 L234Q/L235S/G236R/M252Y/S254T/T256E (antibody)
# heavy: B3 heavy with M256Y, S258T, T260E
# light: B3 light
# notes: also called 10.145; copies: 2 + 2
# B11: anti-CD20 human IgG1 L234A/L235A/P329G (LALAPG reference) (antibody)
# heavy: not shown
# light: B3 light
# notes: also called 2-66; copies: 2 + 2
# B12: anti-CD20 human IgG1 L234S/L235V/G236R (antibody)
# heavy: B3 heavy with Q238S, S239V
# light: B3 light
# notes: also called 2-53; copies: 2 + 2
# B13: anti-CD20 human IgG1 L234G/L235S/G236R (antibody)
# heavy: B3 heavy with Q238G
# light: B3 light
# notes: also called 1-59; 2-19; copies: 2 + 2
# Target: T1, human FcγRIIA (R131, Sino Biological …)
# Experiment: SPR, captured His-receptor
row,binding result,Binder
1,no binding (tested: 100 µg/mL),B1
2,no binding (tested: 100 µg/mL),B2
3,no binding (tested: 100 µg/mL),B3
4,no binding (tested: 100 µg/mL),B4
5,no binding (tested: 100 µg/mL),B5
6,no binding (tested: 100 µg/mL),B6
7,no binding (tested: 100 µg/mL),B7
8,no binding (tested: 100 µg/mL),B8
9,no binding (tested: 100 µg/mL),B9
10,no binding (tested: 100 µg/mL),B10
11,no binding (tested: 100 µg/mL),B11
12,no binding (tested: 100 µg/mL),B12
13,no binding (tested: 100 µg/mL),B13

# Target: T2, Histidine-tagged recombinant human FcγRI (CD64) (human, UniProt P12314 16-288)
# T2 construct: bought; also called Sino Biological Cat. No. 12056-H08H
# Experiment: SPR, captured His-receptor
row,binding result,Binder
1,no binding (tested: 100 µg/mL),B1
2,no binding (tested: 100 µg/mL),B2
3,binds,B4
4,no binding (tested: 100 µg/mL),B5
5,no binding (tested: 100 µg/mL),B6
6,no binding (tested: 100 µg/mL),B7
7,no binding (tested: 100 µg/mL),B8
8,no binding (tested: 100 µg/mL),B9
9,no binding (tested: 100 µg/mL),B10
10,no binding (tested: 100 µg/mL),B12
11,no binding (tested: 100 µg/mL),B13

# Target: T3, human FcγRIIIB (NA2 allotype, Sino Biological Cat. No. 11046-H08H) (human, UniProt O75015 17-200)
# T3 construct: bought; also called human FcγRIIIb NA2 allele
# Experiment: SPR, captured His-receptor
row,binding result,Binder
1,no binding (tested: 100 µg/mL),B1
2,no binding (tested: 100 µg/mL),B2
3,no binding (tested: 100 µg/mL),B3
4,no binding (tested: 100 µg/mL),B4
5,no binding (tested: 100 µg/mL),B5
6,no binding (tested: 100 µg/mL),B6
7,no binding (tested: 100 µg/mL),B7
8,no binding (tested: 100 µg/mL),B8
9,no binding (tested: 100 µg/mL),B9
10,no binding (tested: 100 µg/mL),B10
11,no binding (tested: 100 µg/mL),B11
12,no binding (tested: 100 µg/mL),B12
13,no binding (tested: 100 µg/mL),B13

# Target: T2, Histidine-tagged recombinant human …
# Experiment: SPR, culture supernatant, captured His-FcγRI;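 further: biacore T200 SPR at 25 °C, anti-His capture, supernatants of HEK293 cells expressing IgG1 Fc variants injected 1 min, reference-subtracted response read 55 s after injection start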
row,Mean binding response,Binder
1,11.9 RU,B3
2,16.2 RU,B7
3,17 RU,B9
4,21.8 RU,B13
